Earlier results in patent US11739305B2, “Sialyltransferase variants having neosialidase activity” (The Regents of the University of California, priority 2017, dated 2023).
Where two headings read alike, the source gives them in different places.

B1: hNEU2: human NEU2, an α2-3/6/8-sialidase (protein, UniProt Q9Y3R4 1-380, looked up)
Sialidase-2: MASLPVLQKESVFQSGAHAYRIPALLYLPGQQSLLAFAEQRASKKDEHAELIVLRRGDYDAPTHQVQWQAQEVVAQARLDGHRSMNPCPLYDAQTGTLFLFFIAIPGQVTEQQQLQTRANVTRLCQVTSTDHGRTWSSPRDLTDAAIGPAYREWSTFAVGPGHCLQLHDRARSLVVPAYAYRKLHPIQRPIPSAFCFLSHDHGRTWARGHFVAQDTLECQVAEVETGEQRVVTLNARSHLRARVQAQSTNDGLDFQESQLVKKLVEPPPQGCQGSVISFPSPRSGPGSPAQWLLYTHPTHSWQRADLGAYLNPRPPAPEAWSEPVLLAKGSCAYSDLQSMGTGPDGSPLFGCLYEANDYEEIVFLMFTLKQAFPAEYLPQ
B2: Pd2,6ST: Photobacterium damselae α2-6-sialyltransferase, wild-type enzyme (GenBank BAA25316.1, SEQ ID NO: 1) (protein, listed as Photobacterium damselae)
chain: MKKILTVLSIFILSACNSDNTSLKETVSSNSADVVETETYQLTPIDAPSSFLSHSWEQTCGTPILNESDKQAISFDFVAPELKQDEKYCFTFKGITGDHRYITNTTLTVVAPTLEVYIDHASLPSLQQLIHIIQAKDEYPSNQRFVSWKRVTVDADNANKLNIHTYPLKGNNTSPEMVAAIDEYAQSKNRLNIEFYTNTAHVFNNLPPIIQPLYNNEKVKISHISLYDDGSSEYVSLYQWKDTPNKIETLEGEVSLLANYLAGTSPDAPKGMGNRYNWHKLYDTDYYFLREDYLDVEANLHDLRDYLGSSAKQMPWDEFAKLSDSQQTLFLDIVGFDKEQLQQQYSQSPLPNFIFTGTTTWAGGETKEYYAQQQVNVINNAINETSPYYLGKDYDLFFKGHPAGGVINDIILGSFPDMINIPAKISFEVLMMTDMLPDTVAGIASSLYFTIPADKVNFIVFTSSDTITDREEALKSPLVQVMLTLGIVKEKDVLFWADHKVNSMEVAIDEACTRIIAKRQPTASDLRLVIAIIKTITDLERIGDVAESIAKVALESFSNKQYNLLVSLESLGQHTVRMLHEVLDAFARMDVKAAIEVYQEDDRIDQEYESIVRQLMAHMMEDPSSIPNVMKVMWAARSIERVGDRCQNICEYIIYFVKGKDVRHTKPDDFGTMLD

Tests used:
[1] = reported previously using Neu5Acα2-6GalβpNP as the substrate (Li, Chen, et al. Mol. BioSyst. 2011)
[2] = CMP-Neu5Ac hydrolysis, wild-type, reported previously (McArthur, Chen, et al. Org. Biomol. Chem. 2017)
[3] = wild-type, reported previously (Cheng, Chen, et al. Glycobiology 2010)

Molecule	Km [1]	kcat [1]	Km [2]	kcat [2]	Km [3]	kcat [3]
B1	2.1 ± 0.2 mM	0.18 ± 0.01 s⁻¹	–	–	–	–
B2	–	–	45 ± 14 mM	(4.0 ± 0.9) × 10^2 min^−1	7.6 ± 0.5 mM	0.137 ± 0.005 s⁻¹
